Results published in paper PMC13570301, “Domain-dependent uncoupling of the co-chaperone and E3 ubiquitin ligase CHIP underlies heterogeneity in spinocerebellar ataxia 48” (The Journal of Biological Chemistry, 2026).

What was measured:
[1] = molecular target: the molecule itself; experiment: mass photometry; Refeyn OneMP; CHIP at 50 nM final (a subset also at 20 nM and 100 nM) in 20 mM HEPES pH 8.0, 200 mM NaCl; self-association, oligomeric states by mass
[2] = molecular target: the molecule itself; experiment: as above; remark: listed apart in the source

Protein | stoichiometry N [1] | binding result [2]
CHIP R225∗, recombinant, C-terminal His tag (enzyme, human, UniProt Q9UNE7-1 1-224, looked up, CHIP (STUB1), human, SCA48-associated nonsense variant R225∗ (stop in place of R225, U-box domain lost); source: PD-10 desalting for mass photometry, size exclusion for ubiquitination assays) MKGKEEKEGGARLGAGGGSPEKSPSAQELKEQGNRLFVGRKYPEAAACYGRAITRNPLVAVYYTNRALCYLKMQQHEQALADCRRALELDGQSVKAHFFLGQCQLEMESYDEAIANLQRAYSLAKEQRLNFGDDIPSALRIAKKKRWNSIEERRIHQESELHSYLSRLIAAERERELEECQRNHEGDEDDSHVRAQQACIEAKHDKYMADMDELFSQVDEKRKK | 2 | –
CHIP P228S, recombinant, C-terminal His tag (enzyme, human, UniProt Q9UNE7-1 1-303, looked up, CHIP (STUB1), human, SCA48-associated U-box variant P228S; source: PD-10 desalting for mass photometry, size exclusion for ubiquitination assays; not shown: His tag, C-terminal, kept) MKGKEEKEGGARLGAGGGSPEKSPSAQELKEQGNRLFVGRKYPEAAACYGRAITRNPLVAVYYTNRALCYLKMQQHEQALADCRRALELDGQSVKAHFFLGQCQLEMESYDEAIANLQRAYSLAKEQRLNFGDDIPSALRIAKKKRWNSIEERRIHQESELHSYLSRLIAAERERELEECQRNHEGDEDDSHVRAQQACIEAKHDKYMADMDELFSQVDEKRKKRDISDYLCGKISFELMREPCITPSGITYDRKDIEEHLQRVGHFDPVTRSPLTQEQLIPNLAMKEVIDAFISENGWVEDY | – | binds
CHIP R241W, recombinant, C-terminal His tag (enzyme, human, UniProt Q9UNE7-1 1-303, looked up, CHIP (STUB1), human, SCA48-associated U-box variant R241W; source: PD-10 desalting for mass photometry, size exclusion for ubiquitination assays) MKGKEEKEGGARLGAGGGSPEKSPSAQELKEQGNRLFVGRKYPEAAACYGRAITRNPLVAVYYTNRALCYLKMQQHEQALADCRRALELDGQSVKAHFFLGQCQLEMESYDEAIANLQRAYSLAKEQRLNFGDDIPSALRIAKKKRWNSIEERRIHQESELHSYLSRLIAAERERELEECQRNHEGDEDDSHVRAQQACIEAKHDKYMADMDELFSQVDEKRKKRDIPDYLCGKISFELMWEPCITPSGITYDRKDIEEHLQRVGHFDPVTRSPLTQEQLIPNLAMKEVIDAFISENGWVEDY | – | binds
CHIP G33S, recombinant, C-terminal His tag (enzyme, human, UniProt Q9UNE7-1 1-303, looked up, CHIP (STUB1), human, SCA48-associated TPR-domain variant G33S; source: PD-10 desalting for mass photometry, size exclusion for ubiquitination assays; not shown: His tag, C-terminal, kept) MKGKEEKEGGARLGAGGGSPEKSPSAQELKEQSNRLFVGRKYPEAAACYGRAITRNPLVAVYYTNRALCYLKMQQHEQALADCRRALELDGQSVKAHFFLGQCQLEMESYDEAIANLQRAYSLAKEQRLNFGDDIPSALRIAKKKRWNSIEERRIHQESELHSYLSRLIAAERERELEECQRNHEGDEDDSHVRAQQACIEAKHDKYMADMDELFSQVDEKRKKRDIPDYLCGKISFELMREPCITPSGITYDRKDIEEHLQRVGHFDPVTRSPLTQEQLIPNLAMKEVIDAFISENGWVEDY | – | binds
CHIP F37L, recombinant, C-terminal His tag (enzyme, human, UniProt Q9UNE7-1 1-303, looked up, CHIP (STUB1), human, SCA48-associated TPR-domain variant F37L; source: PD-10 desalting for mass photometry, size exclusion for ubiquitination assays) MKGKEEKEGGARLGAGGGSPEKSPSAQELKEQGNRLLVGRKYPEAAACYGRAITRNPLVAVYYTNRALCYLKMQQHEQALADCRRALELDGQSVKAHFFLGQCQLEMESYDEAIANLQRAYSLAKEQRLNFGDDIPSALRIAKKKRWNSIEERRIHQESELHSYLSRLIAAERERELEECQRNHEGDEDDSHVRAQQACIEAKHDKYMADMDELFSQVDEKRKKRDIPDYLCGKISFELMREPCITPSGITYDRKDIEEHLQRVGHFDPVTRSPLTQEQLIPNLAMKEVIDAFISENGWVEDY | – | binds
CHIP I53T, recombinant, C-terminal His tag (enzyme, human, UniProt Q9UNE7-1 1-303, looked up, CHIP (STUB1), human, SCA48-associated TPR-domain variant I53T; source: PD-10 desalting for mass photometry, size exclusion for ubiquitination assays) MKGKEEKEGGARLGAGGGSPEKSPSAQELKEQGNRLFVGRKYPEAAACYGRATTRNPLVAVYYTNRALCYLKMQQHEQALADCRRALELDGQSVKAHFFLGQCQLEMESYDEAIANLQRAYSLAKEQRLNFGDDIPSALRIAKKKRWNSIEERRIHQESELHSYLSRLIAAERERELEECQRNHEGDEDDSHVRAQQACIEAKHDKYMADMDELFSQVDEKRKKRDIPDYLCGKISFELMREPCITPSGITYDRKDIEEHLQRVGHFDPVTRSPLTQEQLIPNLAMKEVIDAFISENGWVEDY | – | binds
CHIP P57L, recombinant, C-terminal His tag (enzyme, human, UniProt Q9UNE7-1 1-303, looked up, CHIP (STUB1), human, SCA48-associated TPR-domain variant P57L; source: PD-10 desalting for mass photometry, size exclusion for ubiquitination assays) MKGKEEKEGGARLGAGGGSPEKSPSAQELKEQGNRLFVGRKYPEAAACYGRAITRNLLVAVYYTNRALCYLKMQQHEQALADCRRALELDGQSVKAHFFLGQCQLEMESYDEAIANLQRAYSLAKEQRLNFGDDIPSALRIAKKKRWNSIEERRIHQESELHSYLSRLIAAERERELEECQRNHEGDEDDSHVRAQQACIEAKHDKYMADMDELFSQVDEKRKKRDIPDYLCGKISFELMREPCITPSGITYDRKDIEEHLQRVGHFDPVTRSPLTQEQLIPNLAMKEVIDAFISENGWVEDY | – | binds
CHIP A67T, recombinant, C-terminal His tag (enzyme, human, UniProt Q9UNE7-1 1-303, looked up, CHIP (STUB1), human, SCA48-associated TPR-domain variant A67T; source: PD-10 desalting for mass photometry, size exclusion for ubiquitination assays) MKGKEEKEGGARLGAGGGSPEKSPSAQELKEQGNRLFVGRKYPEAAACYGRAITRNPLVAVYYTNRTLCYLKMQQHEQALADCRRALELDGQSVKAHFFLGQCQLEMESYDEAIANLQRAYSLAKEQRLNFGDDIPSALRIAKKKRWNSIEERRIHQESELHSYLSRLIAAERERELEECQRNHEGDEDDSHVRAQQACIEAKHDKYMADMDELFSQVDEKRKKRDIPDYLCGKISFELMREPCITPSGITYDRKDIEEHLQRVGHFDPVTRSPLTQEQLIPNLAMKEVIDAFISENGWVEDY | – | binds
